Assays:
[1] = test system: murine peritoneal cavity (PerC) macrophages; experiment: eCIRP-induced cytokine release in peritoneal cavity macrophages; assay type: cell-based, mouse; details: WT PerC macrophages, eCIRP treatment
Procedure: Murine peritoneal cavity (PerC) macrophages were isolated from adult, WT mice and MFG-E8“ ” mice. Briefly, mice were euthanized using CO2 asphyxiation. Peritoneal fluid and cells were isolated using peritoneal lavage by washing ice-cold Ca^+2 and Mg^+2 free Hank's Balanced Salt Solution (HBSS) with 2% fetal bovine serum (FBS, Solon, Ohio). Total PerC macrophages were isolated by centrifugation at 400 g for 10 minutes at 4° C. After centrifugation, the cell pellet was suspended in culture media containing RPMI 1640 (Invitrogen) supplemented with 25 mM HEPES, 2 mM glutamine, 10% FBS, penicillin (100 IU/mL) and streptomycin (100 IU/mL). PerC macrophages were allowed to adhere in 6-well plates for 4 hours in humidified incubator at 37 °C. […] Adhered PerC macrophages were then mechanically detached from the plate and counted. […]
(§1) The mouse macrophage cell culture supernatants were analyzed for cytokine levels using ELISA kits (BD Biosciences, CA). […] TNF-α and IL-6 levels were measured in cell supernatants by ELISA in accordance with respective manufacturers' instructions (BD Biosciences, CA). Blood was collected, centrifuged at 4,000 RPM for 10 minutes, and sera was separated and analyzed for cytokine levels using ELISA kits (BD Biosciences, CA). TNF-α and IL-6 levels in the serum were measured by ELISA in accordance with respective manufacturers' instructions.

WT mice = experiment: Sterile eCIRP-induced inflammation by rmCIRP injection in mice; assay type: in vivo, mouse; details: 4 hours, vs eCIRP alone
Procedure: FIG. 5A-5B. eCIRP-induced inflammation is attenuated by MOP3. WT mice were treated according to respective groups: PBS (volume equivalent), rmCIRP (5 mg/kg), or MOP3 (10 μg/kg) co-incubated with rmCIRP (5 mg/kg) for 30 mins prior to r.o. injection. After 4 hours, serum was measured for IL-6 (A) and TNFα (B) levels by ELISA. All experiments were performed 3 times, and all data were used for analysis (N=7-10). Data are expressed as mean±SEM and compared by one-way ANOVA and SNK test. *p<0.05 vs. PBS, #p<0.05 vs. eCIRP.
Adult (8-12 weeks) male, C57BL/6 wild-type (WT) mice (20-30 g) were purchased from Charles River Laboratories. MFG-E8 knockout mice (MFG-E8^−/−) were originally obtained from Dr. Shigekazu Nagata, Osaka University of Japan, and bred following our Institutional Animal Care and Use Committee (IACUC) policies. Age-matched, healthy mice were used in all experiments. Animals were randomly assigned to sham, vehicle, or treatment groups. Concerted effort was made to ensure that a limited number of animals were used in each experiment. […] For the design of in vivo models, sample size calculation was driven by variability, effect size, significance level and power as determined through performance of early feasibility and optimization pilot studies. […]
as §1
Serum levels of aspartate transaminase (AST), alanine transaminase (ALT), and lactate dehydrogenase (LDH) were determined using calorimetric enzymatic assays (Pointe Scientific, Canton, MI) according to the manufacturer's instructions.

[2] = rmCIRP 5 mg/kg co-incubated 30 min with test substance, r.o. injection

B1: milk fat globule-epidermal growth factor—factor VIII (protein, listed as Mus musculus)
chain: MQVSRVLAALCGMLLCASGLFAASGDFCDSSLCLNGGTCLTGQDNDIYCLCPEGFTGLVCNETERGPCSPNPCYNDAKCLVTLDTQRGDIFTEYICQCPVGYSGIHCETETNYYNLDGEYMFTTAVPNTAVPTPAPTPDLSNNLASRCSTQLGMEGGAIADSQISASSVYMGFMGLQRWGPELARLYRTGIVNAWTASNYDSKPWIQVNLLRKMRVSGVMTQGASRAGRAEYLKTFKVAYSLDGRKFEFIQDESGGDKEFLGNLDNNSLKVNMFNPTLEAQYIKLYPVSCHRGCTLRFELLGCELHGCSEPLGLKNNTIPDSQMSASSSYKTWNLRAFGWYPHLGRLDNQGKINAWTAQSNSAKEWLQVDLGTQRQVTGIITQGARDFGHIQYVASYKVAHSDDGVQWTVYEEQGSSKVFQGNLDNNSHKKNIFEKPFMARYVRVLPVSWHNRITLRLELLGC
IL-6 levels in cell supernatants [1]: reduced levels | TNFα levels in cell supernatants [1]: reduced levels | serum IL-6 levels (WT mice; [2]): significantly reduced | serum TNFα levels (WT mice; [2]): significantly reduced | LDH levels (tissue injury) (WT mice; rmCIRP 5 mg/kg with rmMFG-E8 40 μg/kg): significantly reduced

Reference: patent US20240197828A1, “Chimeric molecule to treat sepsis and other inflammatory conditions” (THE FEINSTEIN INSTITUTES FOR MEDICAL RESEARCH, priority 2022, published 2024)
